Data on 3 molecules can be found in US20170128564A1, “P[…] FROM gp41, A VACCINE COMPOSITION COMPRISING SAID POLYPEPTIDE, AND USES FOR TREATING AN INFECTION BY AN HIV VIRUS IN AN INDIVIDUAL” (INSTITUT NATIONAL DE LA SANTE ET DE LA RECHERCHE MEDICALE …, priority 2003, published 2017).

No end group written: not given here.

The test system of one data set is CD4+ T cells. The data set can be described thus: NK cytotoxicity 51Cr-release assay, treated CD4+ T cells as targets of activated autologous purified NK cells. The format is cell-based, human. The procedure: NK lines were generated from PBMC, and then purified using the StemSep cell separation system and the NK cell enrichment antibody cocktail (StemCell technologies). NK purified cells were cultured in MyeloCult H5100 medium (StemCell technologies) supplemented with 100 units rhlL-2 (Boheringer). The purity of these preparations was evaluated by flow cytometry after staining with anti-CD3 (BD), anti-CD56 (BD), anti-NKp44, and anti-NKp46 mAbs.
The cytololytic activity was assayed in 4-h ^51Cr-release assay as previously described. Briefly, the target cells were labeled for 2-h at 37° C. with 100 μCi per 10^6 cells Na^51Cr (Amersham), and washed twice with culture medium. The target cells were then distributed in round-bottomed 96-well microtiter plates (4×10^3 cells per well), and the effector cells were added at several E/T ratio. The plates were incubated 4-h at 37° C. The supernatant were then collected and ^51Cr-release was measured in a gamma counted. In experiments in which Abs were included, these were added to final concentration of 20 μg/ml. The relative specific ^51Cr-release was calculated as previously described. Values for spontaneous ^51Cr-release, which are deducted in the calculation, were between 10 and 20% of the total incorporated radioactivity. The results are presented after subtraction of the nonspecific lysis obtained with control targets. […]

Data set [1] relates to NKp44L expression on purified CD4+ T cells. The format is cell-based, human. As to conditions: preliminary experiment with the 6-mers peptide.
The target in a further data set is T1, NKp44L (Homo sapiens, UniProt Q8IZD2).
T1 construct: endogenous in cells; host or cells: U2 cells, uninfected or chronically infected with HIV-1 Sf2
T1 sequence (Q8IZD2 1-1168 isoform Q8IZD2-8 K496E/T516A): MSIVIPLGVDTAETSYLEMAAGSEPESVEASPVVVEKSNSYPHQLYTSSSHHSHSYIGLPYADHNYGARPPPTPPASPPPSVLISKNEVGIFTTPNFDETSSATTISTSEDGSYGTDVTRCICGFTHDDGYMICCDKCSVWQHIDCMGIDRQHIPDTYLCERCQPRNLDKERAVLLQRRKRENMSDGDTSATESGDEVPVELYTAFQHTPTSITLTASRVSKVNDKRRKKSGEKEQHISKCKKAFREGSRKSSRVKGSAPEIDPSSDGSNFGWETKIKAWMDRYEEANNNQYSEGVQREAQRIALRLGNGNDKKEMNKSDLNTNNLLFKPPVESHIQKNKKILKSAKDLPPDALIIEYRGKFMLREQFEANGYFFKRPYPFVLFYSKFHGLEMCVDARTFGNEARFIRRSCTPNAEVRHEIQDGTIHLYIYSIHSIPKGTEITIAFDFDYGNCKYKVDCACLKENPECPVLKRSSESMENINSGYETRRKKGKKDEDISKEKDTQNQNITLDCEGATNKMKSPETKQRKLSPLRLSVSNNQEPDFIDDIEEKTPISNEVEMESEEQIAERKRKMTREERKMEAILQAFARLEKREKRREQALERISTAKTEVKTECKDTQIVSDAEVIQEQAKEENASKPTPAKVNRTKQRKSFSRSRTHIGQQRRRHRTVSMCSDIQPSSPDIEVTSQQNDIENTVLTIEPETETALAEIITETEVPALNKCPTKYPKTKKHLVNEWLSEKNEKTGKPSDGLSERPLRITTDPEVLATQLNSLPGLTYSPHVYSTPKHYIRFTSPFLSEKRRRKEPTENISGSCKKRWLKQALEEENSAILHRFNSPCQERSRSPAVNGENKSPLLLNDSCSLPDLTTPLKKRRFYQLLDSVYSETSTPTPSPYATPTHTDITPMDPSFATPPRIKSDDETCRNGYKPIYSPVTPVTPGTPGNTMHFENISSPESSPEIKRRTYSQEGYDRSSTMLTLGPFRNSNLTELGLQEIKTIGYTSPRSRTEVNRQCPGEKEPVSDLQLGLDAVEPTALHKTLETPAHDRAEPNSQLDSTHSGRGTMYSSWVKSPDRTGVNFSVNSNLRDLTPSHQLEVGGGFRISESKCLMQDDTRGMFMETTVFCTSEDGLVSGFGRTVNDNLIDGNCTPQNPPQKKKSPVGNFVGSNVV
The data set can be described thus: Staining of U2 cells with #7.1 mAb, flow cytometry, and competition with NCR-Ig fusion proteins. The format is binding. As to conditions: HIV-1-infected U2 cells previously stained with fusion protein (FIG. 8C). The procedure:
8B) Cell surface expression of NKp44L detected with #7.1 mAb. Uninfected (UI) and HIV-1-infected (Sf2) U2 cells were incubated with 1 μg/ml of #7.1 mAb (black line) or with the IgM isotype control (dotted line) and analyzed by flow cytometry.
8C) #7.1 mAb inhibits NKp44-Ig binding. HIV-1-infected U2 cells that had previously been stained with either […] of NKp44-Ig fusion protein (lower panel; black line) or control NKp46-Ig fusion protein (upper panel; black line) were incubated with #7.1 mAb (gray line) or IgM isotype control (dotted line) for 1!h at 4° C. and washed twice in 1% PBS-BSA. The cells were then analyzed by flow cytometry. Percentage of cells expressing NKp44L, after NCR-Ig incubation, is noted.
Anti-NKp44 (44/8; IgG1) and anti-NKp44L mAb (#7.1; IgM) were obtained from 5-weekold BalB/c mice immunized with the ClonaCell-HY hybridoma cloning kit, according to the manufacturer's instructions (StemCell Technologies Inc.). The anti-mouse-peroxidase hybridoma screening reagent (Roche) and ELISA were used to select antibodies. Anti-NKp44 (44/8) mAb was prepared by immunizing the mice with NKp44-Ig protein, after specific deletion of the IgG1 human Fc fragment. […] All hybridomas were analyzed with 51Cr cytotoxic assays with untreated or acid-treated 721.221 cells as targets, and the specificity of the anti-NKp44 hybridoma was analyzed by ELISA with different fusion proteins. […]
For orientation: A flow cytometer gives signals particle by particle.

Turning to PWASNASWSNKSLDDIW [gp41-C146], the NK cytotoxic activity result with CD4+ T cells (single peptides of pool C 5 μg/ml, two days, E/T ratio 40/1 (FIG. 4A)) is given as “strongly increased”. Regarding SWSNKS [NH2-SWSNKS-COOH, SWSNKS], in the data set on CD4+ T cells (preliminary experiment with the 6-mers peptide), the NK cytotoxic activity result is “any increased”. The “cell surface expression of NKp44L” value in data set [1] was “any increased”.

B1: NKp44-Ig fusion protein: NKp44-Ig NCR-Ig fusion protein (protein)
chain: QSKAQVLQSVAGQTLTVRCQYPPTGSLYEKKGWCKEASALVCIRLVTSSKPRTMAWTSRFTIWDDPDAGFFTVTMTDLREEDSGHYWCRIYRPSDNSVSKSVRFYLVVSPASASTQTPWTPRDLVSSQTQTQSCVPPTAGARQAPESPSTIPVPSQPQNSTLRPGPAAPIA
modifications: left off: a dimerising Fc or GST
For B1, the “effect of NCR-Ig fusion protein on #7.1 mAb staining” value with NKp44L was “Inhibition”.
